The target of one test is GLP-1 receptor (UniProt P43220 24-463, limits assumed). Nature of the test: cell-based or functional assay.
The next test addresses glucagon receptor (UniProt P47871 26-477, limits assumed). Kind of test: cell-based or functional assay.

This note sets out measurements from patent US20120172295A1 (INDIANA UNIVERSITY RESEARCH AND TECHNOLOGY, published 2012).

Several values for one entry are separate records, joined by “and”; a condition that tells them apart may be missing. Equal entries are not always repeated. Starred links: 1 amine or outer side, 2 acyl side, 3 side chain; linkers in the order of their positions; H or OH if unused. Positions of bridges follow the written chain, without caps; N, C: chain ends. Non-standard residues stand in square brackets, D forms with d. Groups on a side chain read outwards from the residue. No end group written: not given here. *: point of attachment. γGlu = O=C(O)[C@H](CCC(=O)[*:2])N[*:1]; Palmitoyl = CCCCCCCCCCCCCCCC(=O)*; Myristoyl = CCCCCCCCCCCCCC(=O)*; DMIA = not defined here; Aib = CC(C)(N)C(=O)O

Chain of glucagon receptor (P47871 26-477 limits assumed): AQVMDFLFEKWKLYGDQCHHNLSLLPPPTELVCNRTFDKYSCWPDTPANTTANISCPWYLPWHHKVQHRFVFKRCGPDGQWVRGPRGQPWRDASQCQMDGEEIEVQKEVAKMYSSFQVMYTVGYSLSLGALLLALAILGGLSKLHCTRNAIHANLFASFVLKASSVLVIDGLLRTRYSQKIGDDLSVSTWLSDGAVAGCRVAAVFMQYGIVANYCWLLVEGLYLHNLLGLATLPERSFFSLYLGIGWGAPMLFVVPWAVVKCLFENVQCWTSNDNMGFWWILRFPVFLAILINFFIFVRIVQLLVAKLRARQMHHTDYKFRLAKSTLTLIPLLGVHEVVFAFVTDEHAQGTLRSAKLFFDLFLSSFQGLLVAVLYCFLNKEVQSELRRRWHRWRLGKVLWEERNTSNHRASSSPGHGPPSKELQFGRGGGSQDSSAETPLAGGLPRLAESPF

In the case of [DMIA]SQGTFTSDK([γGlu-γGlu-Palmitoyl])SKYLDERRAKDFVQWLMNT (lactam 16-20; reading uncertain) [DMIA1, E16/K20 lactam, Lys10 γE-γE-C16 (SEQ ID NO: 652)], in the test with GLP-1 receptor, the EC50 came to 0.004 nM.
The same measure, in the same setting: as for [DMIA]SQGTFTSDK([γGlu-Palmitoyl])SKYLDERRAKDFVQWLMNT (lactam 16-20; reading uncertain) [DMIA1, E16/K20 lactam, Lys10 γE-C16 (SEQ ID NO: 651)], the figure is 0.006 nM.

B1: Chi-2, AIB2, I7, Lys10 γE-C16 (SEQ ID NO: 649) (peptide)
peptide: H[Aib]QGTFISDK([γGlu-Palmitoyl])SKYLDEQAAKEFIAWLMNT-NH2
modifications: N-terminus assumed
SMILES: CCCCCCCCCCCCCCCC(=O)N[C@@H](CCC(=O)NCCCC[C@H](NC(=O)[C@H](CC(=O)O)NC(=O)[C@H](CO)NC(=O)[C@@H](NC(=O)[C@H](Cc1ccccc1)NC(=O)[C@@H](NC(=O)CNC(=O)[C@H](CCC(N)=O)NC(=O)C(C)(C)NC(=O)[C@@H](N)Cc1c[nH]cn1)[C@@H](C)O)[C@@H](C)CC)C(=O)N[C@@H](CO)C(=O)N[C@@H](CCCCN)C(=O)N[C@@H](Cc1ccc(O)cc1)C(=O)N[C@@H](CC(C)C)C(=O)N[C@@H](CC(=O)O)C(=O)N[C@@H](CCC(=O)O)C(=O)N[C@@H](CCC(N)=O)C(=O)N[C@@H](C)C(=O)N[C@@H](C)C(=O)N[C@@H](CCCCN)C(=O)N[C@@H](CCC(=O)O)C(=O)N[C@@H](Cc1ccccc1)C(=O)N[C@H](C(=O)N[C@@H](C)C(=O)N[C@@H](Cc1c[nH]c2ccccc12)C(=O)N[C@@H](CC(C)C)C(=O)N[C@@H](CCSC)C(=O)N[C@@H](CC(N)=O)C(=O)N[C@H](C(N)=O)[C@@H](C)O)[C@@H](C)CC)C(=O)O
As to B1, in the test with GLP-1 receptor, the EC50 was 0.024 nM and 0.044 nM.

B2: Chi-2, AIB2, Lys10 γE-γE-C16 (SEQ ID NO: 646) (peptide)
peptide: H[Aib]QGTFTSDK([γGlu-γGlu-Palmitoyl])SKYLDEQAAKEFIAWLMNT-NH2
modifications: N-terminus assumed
SMILES: CCCCCCCCCCCCCCCC(=O)N[C@@H](CCC(=O)N[C@@H](CCC(=O)NCCCC[C@H](NC(=O)[C@H](CC(=O)O)NC(=O)[C@H](CO)NC(=O)[C@@H](NC(=O)[C@H](Cc1ccccc1)NC(=O)[C@@H](NC(=O)CNC(=O)[C@H](CCC(N)=O)NC(=O)C(C)(C)NC(=O)[C@@H](N)Cc1c[nH]cn1)[C@@H](C)O)[C@@H](C)O)C(=O)N[C@@H](CO)C(=O)N[C@@H](CCCCN)C(=O)N[C@@H](Cc1ccc(O)cc1)C(=O)N[C@@H](CC(C)C)C(=O)N[C@@H](CC(=O)O)C(=O)N[C@@H](CCC(=O)O)C(=O)N[C@@H](CCC(N)=O)C(=O)N[C@@H](C)C(=O)N[C@@H](C)C(=O)N[C@@H](CCCCN)C(=O)N[C@@H](CCC(=O)O)C(=O)N[C@@H](Cc1ccccc1)C(=O)N[C@H](C(=O)N[C@@H](C)C(=O)N[C@@H](Cc1c[nH]c2ccccc12)C(=O)N[C@@H](CC(C)C)C(=O)N[C@@H](CCSC)C(=O)N[C@@H](CC(N)=O)C(=O)N[C@H](C(N)=O)[C@@H](C)O)[C@@H](C)CC)C(=O)O)C(=O)O
For the molecule B2, the EC50 with GLP-1 receptor was found to be 0.0018 nM.
Regarding H[Aib]QGTFTSDYSKYLD[Aib]QAAKEFIC(PEG 40 kDa)WLMNGGPSSGAPPPSK(Myristoyl)-NH2 [mt-351], in the test with glucagon receptor, the “% Relative activity” value was found to be 10.7% and the midpoint of the response, the EC50, lay at 0.196 nM.

For orientation: EC50 means the concentration giving half of the maximal effect. The low end stands for a more potent agent, the high end for a less potent agent.
